Results published in publication PMC5471280, “An alternative conformation of ERβ bound to estradiol reveals H12 in a stable antagonist position” (Scientific Reports, 2017).

Molecular target: the molecule itself
Test: crystal structure; ERβ LBD-E2 complex at 5 mg/mL; sitting drop, 19 °C; 0.1 M Na-citrate pH 5.5, 10% PEG-4000, 10% isopropanol; no coactivator peptide; 2.5 Å; dimer in the asymmetric unit

B1: human estrogen receptor beta ligand-binding domain (residues 256-501) bound to 17β-estradiol (domain or fragment, UniProt Q92731 256-501, looked up)
chain: RELLLDALSPEQLVLTLLEAEPPHVLISRPSAPFTEASMMMSLTKLADKELVHMISWAKKIPGFVELSLFDQVRLLESCWMEVLMMGLMWRSIDHPGKLIFAPDLVLDRDEGKCVEGILEIFDMLLATTSRFRELKLQHKEYLCVKAMILLNSSMYPLVTATQDADSSRKLAHLLNAVTDALVWVIAKSGISSQQQSMRLANLLMLLSHVRHASNKGMEHLLNMKCKNVVPVYDLLLEMLNAHVLR
notes: The tag was removed with the SUMO protease Ulp1; also called ERβ LBD; hERβ LBD; source: E. coli BL21 (DE3)RIL, purified (NiNTA, Ulp1 cleavage, Superdex-75 SEC)
stoichiometry N: 2
